According to IntAct's records for PubMed 19013460:

B1: Thiamine metabolism regulatory protein THI3 (Saccharomyces cerevisiae), Q07471 (parent)
chain: MNSSYTQRYALPKCIAISDYLFHRLNQLNIHTIFGLSGEFSMPLLDKLYNIPNLRWAGNSNELNAAYAADGYSRLKGLGCLITTFGVGELSAINGVAGSYAEHVGILHIVGMPPTSAQTKQLLLHHTLGNGDFTVFHRIASDVACYTTLIIDSELCADEVDKCIKKAWIEQRPVYMGMPVNQVNLPIESARLNTPLDLQLHKNDPDVEKEVISRILSFIYKSQNPAIIVDACTSRQNLIEETKELCNRLKFPVFVTPMGKGTVNETDPQFGGVFTGSISAPEVREVVDFADFIIVIGCMLSEFSTSTFHFQYKTKNCALLYSTSVKLKNATYPDLSIKLLLQKILANLDESKLSYQPSEQPSMMVPRPYPAGNVLLRQEWVWNEISHWFQPGDIIITETGASAFGVNQTRFPVNTLGISQALWGSVGYTMGACLGAEFAVQEINKDKFPATKHRVILFMGDGAFQLTVQELSTIVKWGLTPYIFVMNNQGYSVDRFLHHRSDASYYDIQPWNYLGLLRVFGCTNYETKKIITVGEFRSMISDPNFATNDKIRMIEIMLPPRDVPQALLDRWVVEKEQSKQVQEENENSSAVNTPTPEFQPLLKKNQVGY
partner: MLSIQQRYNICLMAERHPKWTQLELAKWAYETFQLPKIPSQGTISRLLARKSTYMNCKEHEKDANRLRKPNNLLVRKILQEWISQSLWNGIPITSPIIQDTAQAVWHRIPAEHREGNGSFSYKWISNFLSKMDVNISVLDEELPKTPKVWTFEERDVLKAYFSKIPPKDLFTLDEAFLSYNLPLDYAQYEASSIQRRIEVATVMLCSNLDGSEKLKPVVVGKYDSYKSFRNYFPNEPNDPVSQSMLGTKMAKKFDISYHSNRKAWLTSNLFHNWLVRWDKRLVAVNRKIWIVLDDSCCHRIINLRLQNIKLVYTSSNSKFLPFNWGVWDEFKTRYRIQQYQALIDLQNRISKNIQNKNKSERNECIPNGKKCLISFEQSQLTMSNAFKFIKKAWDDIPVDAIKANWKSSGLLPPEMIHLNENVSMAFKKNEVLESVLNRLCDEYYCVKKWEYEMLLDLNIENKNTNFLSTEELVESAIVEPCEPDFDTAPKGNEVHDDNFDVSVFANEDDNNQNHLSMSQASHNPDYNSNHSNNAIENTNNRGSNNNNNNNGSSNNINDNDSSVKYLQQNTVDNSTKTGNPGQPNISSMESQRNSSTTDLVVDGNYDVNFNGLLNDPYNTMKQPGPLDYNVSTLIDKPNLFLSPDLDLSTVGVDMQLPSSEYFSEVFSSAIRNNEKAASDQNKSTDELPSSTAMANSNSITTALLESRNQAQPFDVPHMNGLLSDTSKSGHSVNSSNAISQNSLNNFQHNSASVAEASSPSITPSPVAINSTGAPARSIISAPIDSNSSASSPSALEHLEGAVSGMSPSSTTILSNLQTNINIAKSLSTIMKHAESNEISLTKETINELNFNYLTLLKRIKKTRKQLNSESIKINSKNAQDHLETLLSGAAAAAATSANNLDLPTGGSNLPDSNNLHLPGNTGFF

Variants of: B1
Conditions: with pdc2_yeast PDC2, P32896

Row | effect of a mutation on the interaction | Variant
1 | increasing interaction | N488D
